Assay results published in patent US20090042248A1 (TARGETEX KFT, published 2009).

Target: T1, MASP-2 CCP1-CCP2-SP fragment (human, UniProt O00187 291-444; O00187 445-686)
T1 construct: range 291-444;range 445-686; also called MASP-2γB; MASP-2 catalytic fragment
Assay: SDS-stable complex formation of 125I-labelled MASP fragment with C1-inhibitor; irreversible inhibition preceded by reversible complex formation, non-linear regression
Experimental: To assess the rate of SDS stable complex formation between the MASP-1 and MASP-2 CCP1-CCP2-SP fragments and C1-inhibitor, the ¹²⁵I-labelled MASP fragments at concentrations ranging between 30-100 nM were incubated with 100-350 nM C1-inhibitor at 37° C. in 20 mM HEPES, 140 mM NaCl, pH 7.4 for 40 minutes. Typically 11-13 samples were taken at varying time periods. […] The samples were further incubated at 37° C. for 30 minutes and run on reducing SDS-PAGE. Cleavages rates were visualized by means of autoradiography and the diminution of the reacted MASP chain was quantified using a GEL DOC 1000 instrument and Molecular Analyst Software for densitometric calculations (Bio-Rad, Hercules, Calif., USA). The kinetic constants were calculated assuming irreversible inhibition proceeded by reversible enzyme-inhibitor complex formation. Using steady-state approximation and neglecting the starting enzyme concentration compared to the starting inhibitor concentration ([I₀]>>[E₀]) the data was regressed on the following equation using non-linear regression methods: [E]=[E₀]exp(−kobst); kobs=k₂[I₀]/(Kᵢ+[I₀]), where kobs is the observed pseudo-first order rate of reaction, k₂ is the rate of irreversible enzyme-inhibitor complex formation and Kᵢ is the inhibitory constant.

T1 sequence (O00187 291-444 limits assumed, form in doubt, chain 1 of 2): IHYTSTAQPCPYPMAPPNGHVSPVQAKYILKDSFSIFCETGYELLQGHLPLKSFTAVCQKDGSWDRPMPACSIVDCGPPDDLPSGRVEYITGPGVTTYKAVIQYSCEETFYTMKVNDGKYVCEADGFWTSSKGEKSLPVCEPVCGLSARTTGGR
T1 sequence (O00187 445-686 limits assumed, form in doubt, chain 2 of 2): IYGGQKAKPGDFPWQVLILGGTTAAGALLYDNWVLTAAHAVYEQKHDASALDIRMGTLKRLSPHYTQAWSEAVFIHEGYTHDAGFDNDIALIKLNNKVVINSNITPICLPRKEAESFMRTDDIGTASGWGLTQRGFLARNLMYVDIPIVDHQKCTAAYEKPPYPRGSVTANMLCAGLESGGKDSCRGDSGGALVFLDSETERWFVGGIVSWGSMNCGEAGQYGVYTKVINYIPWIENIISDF

- Ki: 8.8 nM
B1: C1-inhibitor (other, human, UniProt P05155 23-500, looked up)
chain: NPNATSSSSQDPESLQDRGEGKVATTVISKMLFVEPILEVSSLPTTNSTTNSATKITANTTDEPTTQPTTEPTTQPTIQPTQPTTQLPTDSPTQPTTGSFCPGPVTLCSDLESHSTEAVLGDALVDFSLKLYHAFSAMKKVETNMAFSPFSIASLLTQVLLGAGENTKTNLESILSYPKDFTCVHQALKGFTTKGVTSVSQIFHSPDLAIRDTFVNASRTLYSSSPRVLSNNSDANLELINTWVAKNTNNKISRLLDSLPSDTRLVLLNAIYLSAKWKTTFDPKKTRMEPFHFKNSVIKVPMMNSKKYPVAHFIDQTLKAKVGQLQLSHNLSLVILVPQNLKHRLEDMEQALSPSVFKAIMEKLEMSKFQPTLLTLPRIKVTTSQDMLSIMEKLEFFDFSYDLNLCGLTEDPDLQVSAMQHQTVLELTETGVEAAAASAISVARTLLVFEVQQPFLFVLWDQQHKFPVFMGRVYDPRA
notes: mature; Serum-purified, glycosylated; molecular weight of 71.1 kDa used
